Test results: the supplement of paper PMC7877785
± gives the uncertainty stated by the source.

Assay: self-splicing fitness, log relative to wild type (ln ratio); higher = more splicing; Tetrahymena group I intron in knt gene, E. coli kanamycin selection, DiMSum; sequences stand for … in CUCUCU…GGAGGGAAAAGUUAUCAGGCAUGCACCUGGUAGCUAGUCUUUAAACCAAUAGAUUGCAUCGGUUUAAAAGGCAAGACCGUCAAAUUGCGGGAAAGGGGUCAACAGCCGUUCAGUACCAAGUCUCAGGGGAAACUUUGAGAUGGCCUUGCAAAGGGUAUGGUAAUAAGCUGACGGACAUGGUCCUAACCACGCAGCCAAGUCCUAAGUCAACAGAUCUUCUGUUGAUAUGGAUGCAGUUCACAGACUAAAUGUCGGUCGGGGAAGAUGUAUUCUUCUCAUAAGAUAUAGUCGGACCUCUCCUUAAUGGGAGCUAGCGGAUGAAGUGAUGCAACACUGGAGCCGCUGGGAACUAAUUUGUAUGCGAAAGUAUAUUGAUUAGUUUUGGAGUACUCGUGGUCG
Outline: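 A randomised library covering all eight P1ex-region intron nucleotides was built with the intron in the knt kanamycin-resistance gene on pET-22b(+) and held in E. coli BL21(DE3). Cells were grown overnight at 37°C or 30°C on LB agar, with or without 25 μg/mL kanamycin, plus 100 μg/mL carbenicillin, 50 μM IPTG and 0.2% rhamnose, and pooled colonies were amplicon-sequenced on an Illumina HiSeq 2500. DiMSum fitness is the error-weighted combination of wild-type-normalised replicate fold changes, kanamycin versus none.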

Sequence | self-splicing fitness (ln) (30 °C) | self-splicing fitness (ln) (37 °C)
ACUCAGCAAUAUUACGCCCG | -1.62 ± 0.14 | -0.599 ± 0.18
ACUCAGCAAUAUUACGCCGG | -0.85 ± 0.074 | -0.683 ± 0.092
ACUCAGCAAUAUUACGCUAA | -1.63 ± 0.1 | -0.781 ± 0.1
ACUCAGCAAUAUUACGGAAU | -1.75 ± 0.084 | -0.549 ± 0.11
ACUCAGCAAUAUUACGGACG | -0.251 ± 0.069 | -0.156 ± 0.09
ACUCAGCAAUAUUACGGAGC | -3.55 ± 0.21 | -1.76 ± 0.17
ACUCAGCAAUAUUACGGCUG | -2.36 ± 0.21 | -2.86 ± 0.29
ACUCAGCAAUAUUACGGGAA | -0.98 ± 0.088 | -0.568 ± 0.095
ACUCAGCAAUAUUACGGGCA | -0.259 ± 0.063 | 0.203 ± 0.084
ACUCAGCAAUAUUACGGGGA | -1.24 ± 0.074 | -0.173 ± 0.082
ACUCAGCAAUAUUACGGGGG | -1.68 ± 0.11 | -1.45 ± 0.14
ACUCAGCAAUAUUACGGGGU | -3.84 ± 0.19 | -2.84 ± 0.2
ACUCAGCAAUAUUACGGGUC | -2.95 ± 0.16 | -2.2 ± 0.17
ACUCAGCAAUAUUACGGGUG | -1.42 ± 0.063 | -0.563 ± 0.077
ACUCAGCAAUAUUACGGUCU | -0.745 ± 0.057 | 0.311 ± 0.079
ACUCAGCAAUAUUACGGUGC | -1.69 ± 0.07 | -0.59 ± 0.082
ACUCAGCAAUAUUACGUACU | -0.824 ± 0.056 | -0.927 ± 0.063
ACUCAGCAAUAUUACGUAGG | -0.866 ± 0.06 | -0.368 ± 0.092
ACUCAGCAAUAUUACGUCCA | -0.69 ± 0.084 | -1.36 ± 0.11
ACUCAGCAAUAUUACGUGCU | -2.27 ± 0.082 | -2.53 ± 0.11
ACUCAGCAAUAUUACGUGUG | -1.39 ± 0.061 | -1.3 ± 0.072
ACUCAGCAAUAUUACGUUCU | -0.967 ± 0.079 | -0.242 ± 0.074
ACUGAGCAAUAUUACGAACU | -1.92 ± 0.13 | -1.24 ± 0.16
ACUGAGCAAUAUUACGAUAC | -1.07 ± 0.29 | -1.96 ± 0.33

Sequence | self-splicing fitness (ln) (30 °C) | self-splicing fitness (ln) (37 °C)
ACUGAGCAAUAUUACGCCUA | -2.23 ± 0.17 | -1.42 ± 0.18
ACUGAGCAAUAUUACGCUUA | -3.12 ± 0.38 | -1.88 ± 0.2
ACUGAGCAAUAUUACGGCAC | -3.97 ± 0.37 | -2.6 ± 0.29
ACUGAGCAAUAUUACGGCCU | -2.58 ± 0.23 | -2.12 ± 0.25
ACUGAGCAAUAUUACGGGAC | – | -1.43 ± 0.28
ACUGAGCAAUAUUACGGGCC | -2.33 ± 0.38 | -2.51 ± 0.23
ACUGAGCAAUAUUACGGUAC | -3.19 ± 0.48 | –
ACUGAGCAAUAUUACGGUGG | -3.61 ± 0.16 | -2.37 ± 0.18
ACUGAGCAAUAUUACGGUUC | -3.46 ± 0.19 | -2.08 ± 0.21
ACUGAGCAAUAUUACGGUUU | -3.46 ± 0.17 | -2.6 ± 0.11
ACUGAGCAAUAUUACGUAAA | – | -2.33 ± 0.24
ACUGAGCAAUAUUACGUAAU | -3.47 ± 0.23 | -2.23 ± 0.22
ACUGAGCAAUAUUACGUCAC | -3.38 ± 0.17 | -2.75 ± 0.21
ACUGAGCAAUAUUACGUCAG | -2.94 ± 0.2 | -2.21 ± 0.19
ACUGAGCAAUAUUACGUGUC | -2.31 ± 0.25 | -2.62 ± 0.28
ACUGAGCAAUAUUACGUGUG | -2.22 ± 0.11 | -2.13 ± 0.16
ACUGAGCAAUAUUACGUGUU | -4.1 ± 0.15 | -2.25 ± 0.11
ACUGAGCAAUAUUACGUUAU | -3.12 ± 0.15 | -2.89 ± 0.2
ACUUAGCAAUAUUACGAAAU | -3.03 ± 0.23 | -1.23 ± 0.2
ACUUAGCAAUAUUACGACCU | -0.101 ± 0.16 | -0.219 ± 0.2
ACUUAGCAAUAUUACGACUU | -0.0888 ± 0.085 | -0.156 ± 0.1
ACUUAGCAAUAUUACGAGGA | -1.87 ± 0.16 | -1.66 ± 0.23
ACUUAGCAAUAUUACGAUGA | -0.609 ± 0.094 | -1.2 ± 0.1
ACUUAGCAAUAUUACGCCGA | -2.94 ± 0.21 | -1.35 ± 0.15

Sequence | self-splicing fitness (ln) (30 °C) | self-splicing fitness (ln) (37 °C)
ACUUAGCAAUAUUACGCCGU | -2.28 ± 0.24 | -1.11 ± 0.23
ACUUAGCAAUAUUACGCGAC | -2.91 ± 0.13 | -2.06 ± 0.17
ACUUAGCAAUAUUACGCUAG | -2.35 ± 0.11 | -1.72 ± 0.12
ACUUAGCAAUAUUACGGAAA | -2.19 ± 0.27 | -2.09 ± 0.26
ACUUAGCAAUAUUACGGAAU | -2.99 ± 0.17 | -2.13 ± 0.2
ACUUAGCAAUAUUACGGACG | -1.59 ± 0.1 | -0.553 ± 0.12
ACUUAGCAAUAUUACGGCAC | -1.79 ± 0.11 | -1.07 ± 0.14
ACUUAGCAAUAUUACGGCCC | -1.01 ± 0.34 | -0.451 ± 0.29
ACUUAGCAAUAUUACGGCGC | -0.406 ± 0.11 | 0.119 ± 0.15
ACUUAGCAAUAUUACGGCUG | -1.32 ± 0.062 | -0.174 ± 0.082
ACUUAGCAAUAUUACGGGAU | -2.08 ± 0.11 | -0.352 ± 0.098
ACUUAGCAAUAUUACGGGUU | -3.42 ± 0.19 | -3.29 ± 0.3
ACUUAGCAAUAUUACGUAAG | -0.131 ± 0.081 | -0.844 ± 0.1
ACUUAGCAAUAUUACGUACA | -1.84 ± 0.17 | -0.763 ± 0.15
ACUUAGCAAUAUUACGUCUU | -0.647 ± 0.084 | -4.56e-06 ± 0.099
ACUUAGCAAUAUUACGUGGU | -3.62 ± 0.21 | -2.26 ± 0.17
ACUUAGCAAUAUUACGUUCC | -2.16 ± 0.31 | -2.04 ± 0.44
AGAAAGCAAUAUUACGACGA | -0.322 ± 0.13 | 0.0397 ± 0.12
AGAAAGCAAUAUUACGAUUU | -0.00992 ± 0.078 | 0.286 ± 0.11
AGAAAGCAAUAUUACGCAGA | -2.03 ± 0.14 | -1.72 ± 0.13
AGAAAGCAAUAUUACGCGGU | -3.13 ± 0.17 | -1.92 ± 0.21
AGAAAGCAAUAUUACGCUGC | -2.38 ± 0.2 | -1.52 ± 0.23
AGAAAGCAAUAUUACGCUUA | -1.63 ± 0.11 | -0.632 ± 0.087
AGAAAGCAAUAUUACGGAAG | -2.64 ± 0.19 | -1.71 ± 0.22

Sequence | self-splicing fitness (ln) (30 °C) | self-splicing fitness (ln) (37 °C)
AGAAAGCAAUAUUACGGAGU | -2.55 ± 0.11 | -1.11 ± 0.11
AGAAAGCAAUAUUACGGGCG | -0.886 ± 0.1 | -0.328 ± 0.12
AGAAAGCAAUAUUACGGUAA | -2.66 ± 0.25 | -0.265 ± 0.14
AGAAAGCAAUAUUACGGUCU | -1.11 ± 0.082 | -0.58 ± 0.09
AGAAAGCAAUAUUACGUAAU | -1.6 ± 0.087 | -1.27 ± 0.12
AGAAAGCAAUAUUACGUUGA | -2.09 ± 0.14 | -1.23 ± 0.14
AGAAAGCAAUAUUACGUUGU | -4.11 ± 0.14 | -1.88 ± 0.099
AGACAGCAAUAUUACGAAAU | -2.88 ± 0.17 | -1.43 ± 0.14
AGACAGCAAUAUUACGAAUA | -2.38 ± 0.24 | -1.62 ± 0.19
AGACAGCAAUAUUACGACAC | -1 ± 0.11 | -0.662 ± 0.14
AGACAGCAAUAUUACGACCA | -0.623 ± 0.11 | -0.823 ± 0.13
AGACAGCAAUAUUACGAGAG | -4.6 ± 0.34 | -2.12 ± 0.17
AGACAGCAAUAUUACGCCAA | -2.35 ± 0.15 | -1.1 ± 0.12
AGACAGCAAUAUUACGCGAU | -2.68 ± 0.14 | -1.29 ± 0.15
AGACAGCAAUAUUACGGAAC | – | -1.4 ± 0.22
AGACAGCAAUAUUACGGACG | -1.14 ± 0.066 | -0.531 ± 0.071
AGACAGCAAUAUUACGGACU | -0.583 ± 0.068 | -0.3 ± 0.087
AGACAGCAAUAUUACGGCAC | -0.629 ± 0.086 | -1.09 ± 0.094
AGACAGCAAUAUUACGGCGC | -0.893 ± 0.092 | -0.134 ± 0.12
AGACAGCAAUAUUACGGCUG | -2.93 ± 0.14 | -2.34 ± 0.19
AGACAGCAAUAUUACGGCUU | -0.243 ± 0.094 | 0.564 ± 0.14
AGACAGCAAUAUUACGGUCG | -1.02 ± 0.093 | -0.102 ± 0.12
AGACAGCAAUAUUACGUAAA | -2.15 ± 0.072 | -1.05 ± 0.08
AGACAGCAAUAUUACGUGAG | -1.67 ± 0.056 | -0.569 ± 0.087
